From publication PMC5340868 (mBio, 2017) come the findings set out here.

For series [1], the target named is T1, rRv3167c (TetR-like regulator) (Mycobacterium tuberculosis, UniProt O53317 1-208).
T1 sequence: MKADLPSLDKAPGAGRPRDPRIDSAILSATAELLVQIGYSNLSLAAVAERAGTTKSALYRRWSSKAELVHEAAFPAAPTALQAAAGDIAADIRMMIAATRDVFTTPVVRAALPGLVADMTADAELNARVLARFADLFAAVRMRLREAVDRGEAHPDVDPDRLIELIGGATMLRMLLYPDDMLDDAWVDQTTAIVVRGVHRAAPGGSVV
Put plainly: EMSA; 30 uM protein, 200 nM DNA, 5 mM MgCl2; ITC: 10 mM phosphate pH 7.2, 136 mM NaCl, 4 mM KCl, 25 C ([…]. To be noted: protein: recombinant; tags: N-terminal 6xHis (pET28c, NdeI/BamHI); chain copies: 2; blunt. Background: In EMSA bound probe runs differently from free probe, usually more slowly.

In series [2] the target is T1, rRv3167c (TetR-like regulator). Briefly: ITC; ITC: 10 mM phosphate pH 7.2, 136 mM NaCl, 4 mM KCl, 25 C ([…]. The conditions noted are these: protein: recombinant; tags: N-terminal 6xHis (pET28c, NdeI/BamHI); chain copies: 2; blunt. Background: In ITC the heat of successive injections is recorded.
The series “SEC” concerns the molecule itself. Put plainly: SEC.

B1: randomized control DNA (Negative+/-) (dsDNA)
DNA 1: AGCCTTGCAGGCTAATCGGTAGCTA
DNA 2: TAGCTACCGATTAGCCTGCAAGGCT
For the molecule B1, the binding result in series [1] is “no binding”.

B2: palRv3167c (dsDNA)
DNA 1: TAACGCTACCTAAAGTAGCGTAA
DNA 2: TTACGCTACTTTAGGTAGCGTTA
For B2, the Kd (as a rule, the constant that tells how readily two partners part at equilibrium) in series [2] is 12.3 ± 3.2 µM.

B3: recombinant Rv3167c (rRv3167c), N-terminal 6-histidine tag (natural protein)
chain: T1 sequence
notes: also called purified Rv3167c
In the case of B3, in “SEC”, the stoichiometry N – broadly, a count of units in the complex or per binding partner – stood at 2.
